Target: αvβ3 integrin (human, UniProt P06756 31-1048; P05106 27-788)
Assay: cell-based or functional assay

Sequence of αvβ3 integrin (P06756 31-1048, chain 1 of 2): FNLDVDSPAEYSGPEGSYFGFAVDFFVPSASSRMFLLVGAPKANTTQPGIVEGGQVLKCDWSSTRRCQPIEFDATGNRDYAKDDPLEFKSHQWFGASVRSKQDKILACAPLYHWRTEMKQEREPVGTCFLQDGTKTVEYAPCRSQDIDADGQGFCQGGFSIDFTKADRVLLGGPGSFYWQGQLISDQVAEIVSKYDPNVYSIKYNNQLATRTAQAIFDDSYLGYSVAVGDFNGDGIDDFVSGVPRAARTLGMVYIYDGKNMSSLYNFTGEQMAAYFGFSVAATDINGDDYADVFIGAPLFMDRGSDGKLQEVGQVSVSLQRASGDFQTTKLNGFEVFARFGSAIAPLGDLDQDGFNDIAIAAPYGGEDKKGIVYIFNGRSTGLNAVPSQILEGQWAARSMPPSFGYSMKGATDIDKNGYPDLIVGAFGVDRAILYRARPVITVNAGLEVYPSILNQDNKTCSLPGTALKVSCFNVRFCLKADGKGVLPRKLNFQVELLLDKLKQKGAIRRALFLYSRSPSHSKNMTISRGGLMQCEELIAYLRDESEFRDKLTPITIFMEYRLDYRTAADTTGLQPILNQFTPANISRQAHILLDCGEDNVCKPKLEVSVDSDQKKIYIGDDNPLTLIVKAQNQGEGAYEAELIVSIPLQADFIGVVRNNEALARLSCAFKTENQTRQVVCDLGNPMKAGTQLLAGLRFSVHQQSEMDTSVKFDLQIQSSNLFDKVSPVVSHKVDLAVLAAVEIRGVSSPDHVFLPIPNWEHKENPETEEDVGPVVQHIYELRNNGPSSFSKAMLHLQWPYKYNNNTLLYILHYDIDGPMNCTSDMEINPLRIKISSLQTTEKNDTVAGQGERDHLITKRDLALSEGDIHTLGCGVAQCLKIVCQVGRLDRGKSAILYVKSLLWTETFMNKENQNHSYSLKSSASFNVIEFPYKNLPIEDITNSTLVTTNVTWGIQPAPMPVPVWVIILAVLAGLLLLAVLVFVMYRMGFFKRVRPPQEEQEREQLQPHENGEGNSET
Sequence of αvβ3 integrin (P05106 27-788, chain 2 of 2): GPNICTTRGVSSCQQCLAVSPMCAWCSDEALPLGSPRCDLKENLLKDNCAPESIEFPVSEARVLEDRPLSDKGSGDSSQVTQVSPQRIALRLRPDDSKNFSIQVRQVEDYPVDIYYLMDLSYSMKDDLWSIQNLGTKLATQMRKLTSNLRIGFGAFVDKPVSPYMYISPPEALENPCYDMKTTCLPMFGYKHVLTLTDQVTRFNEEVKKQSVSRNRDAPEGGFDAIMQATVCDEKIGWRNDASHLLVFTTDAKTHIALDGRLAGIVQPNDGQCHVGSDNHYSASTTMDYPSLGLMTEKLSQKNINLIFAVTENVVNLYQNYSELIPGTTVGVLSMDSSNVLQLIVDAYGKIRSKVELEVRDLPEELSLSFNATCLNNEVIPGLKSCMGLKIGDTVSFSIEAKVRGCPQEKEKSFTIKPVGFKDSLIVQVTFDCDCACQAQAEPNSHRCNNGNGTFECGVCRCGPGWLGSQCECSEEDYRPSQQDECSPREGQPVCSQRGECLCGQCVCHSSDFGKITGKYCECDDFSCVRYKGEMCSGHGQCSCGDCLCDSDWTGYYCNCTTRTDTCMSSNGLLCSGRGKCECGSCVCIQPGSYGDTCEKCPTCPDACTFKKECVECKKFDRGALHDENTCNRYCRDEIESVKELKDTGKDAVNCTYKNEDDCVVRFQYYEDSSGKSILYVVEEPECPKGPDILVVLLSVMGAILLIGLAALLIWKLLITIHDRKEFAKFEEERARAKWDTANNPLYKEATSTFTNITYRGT

B1: YH18 synthetic peptide derived from the fourth fas-1 domain of βig-h3 (D-IV YH18) (peptide)
peptide: KELANILKYHIGDEILVS
B1 was tested, and the “IC50 of inhibition of HUVEC tube formation on Matrigel” value was 500 µM.
